In PMC10397247:

What was measured:
4H3009-AA = biological target: T1, 4H3009-AA; assay: two-hybrid library CCmax;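 also: natural log of median RNA to DNA barcode read ratio; higher means stronger binding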
T1 chain: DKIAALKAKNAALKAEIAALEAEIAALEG

4H3016-AA = biological target: T2, 4H3016-AA; assay: two-hybrid library CCmax; conditions: mean of both orientations;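 also: natural log of median RNA to DNA barcode read ratio; higher means stronger binding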
T2 chain: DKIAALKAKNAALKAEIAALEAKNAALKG

4H310-AA = biological target: T3, 4H310-AA; assay: two-hybrid library CCmax; conditions: mean of both orientations;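 also: natural log of median RNA to DNA barcode read ratio; higher means stronger binding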
T3 chain: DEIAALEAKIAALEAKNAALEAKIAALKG

4H3120-AA = biological target: T4, 4H3120-AA; assay: two-hybrid library CCmax; conditions: mean of both orientations;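 also: natural log of median RNA to DNA barcode read ratio; higher means stronger binding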
T4 chain: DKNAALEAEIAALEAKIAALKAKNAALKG

4H3130-AA = biological target: T5, 4H3130-AA; assay: two-hybrid library CCmax; conditions: mean of both orientations;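 also: natural log of median RNA to DNA barcode read ratio; higher means stronger binding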
T5 chain: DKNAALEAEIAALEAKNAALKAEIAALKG

4H3165-AA = biological target: T6, 4H3165-AA; assay: two-hybrid library CCmax; conditions: mean of both orientations;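 also: natural log of median RNA to DNA barcode read ratio; higher means stronger binding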
T6 chain: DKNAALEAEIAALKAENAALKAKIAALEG

4H3381-AA = biological target: T7, 4H3381-AA; assay: two-hybrid library CCmax; conditions: mean of both orientations
T7 chain: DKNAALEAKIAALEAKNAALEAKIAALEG

4H3395-AA = biological target: T8, 4H3395-AA; assay: two-hybrid library CCmax
T8 chain: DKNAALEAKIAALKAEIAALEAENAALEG

4H3410-AA = biological target: T9, 4H3410-AA; assay: two-hybrid library CCmax; conditions: mean of both orientations
T9 chain: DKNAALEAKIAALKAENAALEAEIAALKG

4H3590-AA = biological target: T10, 4H3590-AA; assay: two-hybrid library CCmax; conditions: mean of both orientations
T10 chain: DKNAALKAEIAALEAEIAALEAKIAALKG

4H3697-AA = biological target: T11, 4H3697-AA; assay: two-hybrid library CCmax; conditions: mean of both orientations
T11 chain: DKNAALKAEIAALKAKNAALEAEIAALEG

4H3753-AA = biological target: T12, 4H3753-AA; assay: two-hybrid library CCmax; conditions: mean of both orientations
T12 chain: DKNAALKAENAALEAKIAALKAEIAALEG

4H3865-AA = biological target: T13, 4H3865-AA; assay: two-hybrid library CCmax; conditions: mean of both orientations
T13 chain: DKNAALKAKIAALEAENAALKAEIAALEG

4H458-AA = biological target: T14, 4H458-AA; assay: two-hybrid library CCmax; conditions: mean of both orientations
T14 chain: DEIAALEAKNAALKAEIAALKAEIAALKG

4H485-AA = biological target: T15, 4H485-AA; assay: two-hybrid library CCmax; conditions: mean of both orientations
T15 chain: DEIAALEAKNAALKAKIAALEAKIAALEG

4H536-AA = biological target: T16, 4H536-AA; assay: two-hybrid library CCmax; conditions: mean of both orientations
T16 chain: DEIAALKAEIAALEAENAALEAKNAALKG

4H570-AA = biological target: T17, 4H570-AA; assay: two-hybrid library CCmax; conditions: mean of both orientations
T17 chain: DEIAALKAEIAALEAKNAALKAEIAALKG

4H629-AA = biological target: T18, 4H629-AA; assay: two-hybrid library CCmax; conditions: mean of both orientations
T18 chain: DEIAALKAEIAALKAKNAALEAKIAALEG

4H710-AA = biological target: T19, 4H710-AA; assay: two-hybrid library CCmax; conditions: mean of both orientations
T19 chain: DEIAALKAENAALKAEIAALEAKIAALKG

4H745-AA = biological target: T20, 4H745-AA; assay: two-hybrid library CCmax; conditions: mean of both orientations
T20 chain: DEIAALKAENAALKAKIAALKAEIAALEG

4H797-AA = biological target: T21, 4H797-AA; assay: two-hybrid library CCmax; conditions: mean of both orientations
T21 chain: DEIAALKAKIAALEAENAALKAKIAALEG

4H850-AA = biological target: T22, 4H850-AA; assay: two-hybrid library CCmax; conditions: mean of both orientations
T22 chain: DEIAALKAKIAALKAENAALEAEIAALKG

4H891-AA = biological target: T23, 4H891-AA; assay: two-hybrid library CCmax
T23 chain: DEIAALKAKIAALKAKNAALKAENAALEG

4H909-AA = biological target: T24, 4H909-AA; assay: two-hybrid library CCmax; conditions: mean of both orientations
T24 chain: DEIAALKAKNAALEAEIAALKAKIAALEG

4H930-AA = biological target: T25, 4H930-AA; assay: two-hybrid library CCmax; conditions: mean of both orientations
T25 chain: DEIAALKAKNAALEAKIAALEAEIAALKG

4H94-AA = biological target: T26, 4H94-AA; assay: two-hybrid library CCmax; conditions: mean of both orientations
T26 chain: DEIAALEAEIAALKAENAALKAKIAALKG

4H949-bA = biological target: T27, 4H949-bA; assay: two-hybrid library CCNG1
T27 chain: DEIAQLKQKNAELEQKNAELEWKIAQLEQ

APC9096-AA = biological target: T28, APC9096-AA; assay: two-hybrid library CCmax
T28 chain: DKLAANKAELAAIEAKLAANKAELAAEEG

APC9319-AA = biological target: T29, APC9319-AA; assay: two-hybrid library CCmax; conditions: mean of both orientations
T29 chain: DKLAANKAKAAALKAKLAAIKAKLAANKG

4H932-bN = biological target: T30, 4H932-bN; assay: two-hybrid library CCNG1
T30 chain: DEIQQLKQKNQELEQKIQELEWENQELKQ

4H949-bN = biological target: T31, 4H949-bN; assay: two-hybrid library CCNG1
T31 chain: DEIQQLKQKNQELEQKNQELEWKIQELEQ

Question: For DKIAALKAKNAALKAEIAALEAEIAALEG [4H3009-AA], which interaction score (4H3009-AA) is on record?
Answer: Its interaction score is 2.25.

Question: And the interaction score (4H3016-AA)?
Answer: The interaction score was -1.16.

Question: And the interaction score (4H310-AA)?
Answer: The interaction score was -0.567.

Question: What about the interaction score (4H3120-AA) of the same binder?
Answer: The interaction score was -0.531.

Question: And the interaction score (4H3130-AA)?
Answer: The interaction score was -0.967.

Question: What about the interaction score (4H3165-AA) of the same binder?
Answer: The interaction score was -1.43.

Question: And the interaction score (4H3381-AA)?
Answer: Its interaction score is -1.54.

Question: What about the interaction score (4H3395-AA) of the same binder?
Answer: Its interaction score is -1.73.

Question: What about the interaction score (4H3410-AA) of the same binder?
Answer: The interaction score was 0.321.

Question: And the interaction score (4H3590-AA)?
Answer: Its interaction score is 0.389.

Question: What about the interaction score (4H3697-AA) of the same binder?
Answer: The interaction score was 0.129.

Question: And the interaction score (4H3753-AA)?
Answer: The interaction score was 1.09.

Question: And the interaction score (4H3865-AA)?
Answer: Its interaction score is -1.6.

Question: What about the interaction score (4H458-AA) of the same binder?
Answer: Its interaction score is 0.956.

Question: What about the interaction score (4H485-AA) of the same binder?
Answer: Its interaction score is 1.22.

Question: What about the interaction score (4H536-AA) of the same binder?
Answer: The interaction score was -1.35.

Question: What about the interaction score (4H570-AA) of the same binder?
Answer: Its interaction score is -0.427.

Question: And the interaction score (4H629-AA)?
Answer: The interaction score was 1.67.

Question: What about the interaction score (4H710-AA) of the same binder?
Answer: The interaction score was 1.94.

Question: What about the interaction score (4H745-AA) of the same binder?
Answer: The interaction score was 1.77.

Question: What about the interaction score (4H797-AA) of the same binder?
Answer: Its interaction score is -1.65.

Question: What about the interaction score (4H850-AA) of the same binder?
Answer: The interaction score was 1.63.

Question: And the interaction score (4H891-AA)?
Answer: Its interaction score is -1.57.

Question: And the interaction score (4H909-AA)?
Answer: Its interaction score is 0.523.

Question: What about the interaction score (4H930-AA) of the same binder?
Answer: Its interaction score is -0.0462.

Question: And the interaction score (4H94-AA)?
Answer: The interaction score was -0.794.

Question: With DEIAQLKQKNAELEQKNAELEWKIAQLEQ [4H949-bA] as the binder, how does the interaction score (4H949-bA) read?
Answer: The interaction score was -0.253.

Question: For DKLAANKAELAAIEAKLAANKAELAAEEG [APC9096-AA], which interaction score (APC9096-AA) is on record?
Answer: The interaction score was -2.06.

Question: What about the interaction score (APC9319-AA) of the same binder?
Answer: Its interaction score is -1.81.

Question: What does the source list for DEIQQLKQKNQELEQKIQELEWENQELKQ [4H932-bN]?
Answer: interaction score (4H932-bN): 1.01; interaction score (4H949-bN): -1.08
